# Source: article PMC8672811 (Journal of molecular biology, 2021)
# Where two headings read alike, the source gives them in different places.
# Tests used:
# SEC [1] = biological target: the molecule itself; assay: SEC
# crystal structure = biological target: the molecule itself; assay: crystal structure
# SEC [2] = biological target: the molecule itself; assay: SEC; remark: listed apart in the source
# SEC [3] = biological target: the molecule itself; assay: SEC; remark: listed apart in the source
protein,measurement,setting,value
"KcsA W67F channel, locked open (disulfide cross-linked open-state construct) (natural protein, UniProt P0A334 21-125, looked up, Cys mutant channels in the cross-linked state (disulfide crosslink between subunits)) GSALQWRCAGAATVLLVIVLLAGSYLAVLAERGAPGAQLITYPRALFWSVETATTVGYGDLYPVTLWGRLVAVVVMVAGITSFGLVTAALATWFVGQCQQQQGHF",stoichiometry N,SEC [1],4
"KcsA WT channel trapped with the activation gate open (disulfide cross-linked open-state construct) (natural protein, UniProt P0A334 21-125, looked up, Cys mutant channels in the cross-linked state (disulfide crosslink between subunits)) GSALQWRCAGAATVLLVIVLLAGSYLAVLAERGAPGAQLITYPRALWWSVETATTVGYGDLYPVTLWGRLVAVVVMVAGITSFGLVTAALATWFVGQCQQQQGHF",binding result,crystal structure,binds
"KcsA W67F channel (natural protein, UniProt P0A334 1-125, looked up) MPPMLSGLLARLVKLLLGRHGSALHWRAAGAATVLLVIVLLAGSYLAVLAERGAPGAQLITYPRALFWSVETATTVGYGDLYPVTLWGRLVAVVVMVAGITSFGLVTAALATWFVGREQERRGHF",stoichiometry N,SEC [2],4
"KcsA Y82A channel (natural protein, UniProt P0A334 1-125, looked up) MPPMLSGLLARLVKLLLGRHGSALHWRAAGAATVLLVIVLLAGSYLAVLAERGAPGAQLITYPRALWWSVETATTVGYGDLAPVTLWGRLVAVVVMVAGITSFGLVTAALATWFVGREQERRGHF",stoichiometry N,SEC [3],4
"KcsA W67F/F103A channel (natural protein, UniProt P0A334 1-125, looked up) MPPMLSGLLARLVKLLLGRHGSALHWRAAGAATVLLVIVLLAGSYLAVLAERGAPGAQLITYPRALFWSVETATTVGYGDLYPVTLWGRLVAVVVMVAGITSAGLVTAALATWFVGREQERRGHF",binding result,SEC [1],binds
